For experiment [1], the target named is T1, recombinant E.coli-expressed human IL-13 (human, UniProt P35225 35-146).
T1 construct: Untagged E.coli material, bought (Cambridge Bioscience) or made in-house (CA); also called hIL-13; human IL13 (CA)
The experiment can be described thus: sandwich ELISA: E.coli-expressed human IL-13 captured by goat anti-human IL-13 polyclonal, titrated 6A1, anti-mouse IgG-HRP. Background: In an ELISA, binding on a coated surface is turned into a signal by an enzyme label.

Experiment [2] deals with T2, recombinant E.coli-expressed cynomolgus IL-13 (cynomolgus, UniProt Q5I6E4 21-132 (Macaca thibetana entry)).
T2 chain: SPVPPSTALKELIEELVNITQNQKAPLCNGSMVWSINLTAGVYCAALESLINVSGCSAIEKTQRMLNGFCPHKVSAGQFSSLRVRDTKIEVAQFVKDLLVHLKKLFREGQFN
The experiment can be described thus: cell-based or functional assay.

For experiment [3], the target named is T3, alanine-scan peptide 66 (human, N-terminal biotin).
T3 construct: also called F106A peptide
T3 peptide: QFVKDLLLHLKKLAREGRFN
As to the kind of experiment: peptide ELISA: immobilised biotinylated peptide, titrated parental 6A1 (mAb named in legend paragraph 137, not on the sheet).

The target of experiment [4] is T4, alanine-scan peptide 1 (parental sequence, no substitution) (human, N-terminal biotin).
T4 construct: also called parental peptide
T4 peptide: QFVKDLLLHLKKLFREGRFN
The experiment is described as above.

For experiment [5], the target named is T5, alanine-scan peptide 63 (human, N-terminal biotin).
T5 construct: also called K103A peptide
T5 peptide: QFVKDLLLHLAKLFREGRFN
The experiment is described as above.

In experiment [6] the target is T6, alanine-scan peptide 65 (human, N-terminal biotin).
T6 construct: also called L105A peptide
T6 peptide: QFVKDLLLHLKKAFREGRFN
The description is as above.

Experiment [7] deals with T1, recombinant E.coli-expressed human IL-13. The experiment can be described thus: cell-based or functional assay.
Experiment [8] concerns the target T7, recombinant E.coli-expressed human IL-4 (human, UniProt P05112 25-153).
T7 sequence (looked up): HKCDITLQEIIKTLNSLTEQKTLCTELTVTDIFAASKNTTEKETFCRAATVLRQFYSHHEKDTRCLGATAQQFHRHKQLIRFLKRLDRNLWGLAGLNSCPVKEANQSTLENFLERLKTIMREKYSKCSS
The experiment can be described thus: sandwich ELISA: human IL-4 captured by goat anti-human IL-4 polyclonal, titrated antibody (positive control).

The values below come from patent US7807788 (GlaxoSmithKline, dated 2010).

Several values for one entry are separate records, joined by “and”; a condition that tells them apart may be missing. Identical values can stand only once.

B1: mouse monoclonal antibody 6A1 (antibody, mouse IgG1, V domains shown)
VH: EIQLQQSVAELVRPGASVRLSCTASGFYIKDTYMHWVIQRPEQGLEWIGTIDPANGNTKYVPKFQGKATITADTSSNTAYLRLSSLTSEDTAIYYCARSIYDDYHYDDYYAMDYWGQGTSVTVSS
VL: DVLMTQTPLSLPVSLGDQASISCRSSQNIVHINGNTYLEWYLQKPGQSPKLLIYKISDRFSGVPDRFSGSGSGTDFTLKISRVEAEDLGVYYCFQGSHVPWTFGGGTKLEIK
notes: Murine IgG1/kappa from hybridoma; also called mAb 6A1; 6A1 parental mAb
B1: the half-maximal effective concentration (EC50 (read off the curve)) in experiment [1] was around 0.03 µg/mL; in experiment [3], around 0.03 µg/mL; in experiment [4], ~0.02 µg/mL and ~0.03 µg/mL; in experiment [5] it was around 0.02 µg/mL; in experiment [6], around 0.03 µg/mL. Moreover, the “Mean ND50 for 2 assays, TF-1 bioassay” value in experiment [2] is 0.078 µg/mL.

B2: chimaeric 6A1 monoclonal antibody (antibody, human IgG1, V domains shown)
VH: EIQLQQSVAELVRPGASVRLSCTASGFYIKDTYMHWVIQRPEQGLEWIGTIDPANGNTKYVPKFQGKATITADTSSNTAYLRLSSLTSEDTAIYYCARSIYDDYHYDDYYAMDYWGQGTSVTVSS
VL: DVLMTQTPLSLPVSLGDQASISCRSSQNIVHINGNTYLEWYLQKPGQSPKLLIYKISDRFSGVPDRFSGSGSGTDFTLKISRVEAEDLGVYYCFQGSHVPWTFGGGTKLEIK
In the case of B2, the “Mean ND50 for 2 assays, TF-1 bioassay” value in experiment [7] was 0.119 µg/mL.

B3: anti-human IL4 mAb (antibody, V domains shown)
VH: QVQLQQSGPELVKPGASVKISCKASGYSFTSYWIHWIKQRPGQGLEWIGMIDPSDGETRLNQRFQGRATLTVDESTSTAYMQLRSPTSEDSAVYYCTRLKEYGNYDSFYFDVWGAGTLVTVSS
VL: DIQMTQSPASLSVSVGDTITLTCHASQNIDVWLSWFQQKPGNIPKLLIYKASNLHTGVPSRFSGSGSGTGFTLTISSLQPEDIATYYCQQAHSYPFTFGGGTKLEIKR
On to B3, for which the “EC50 (read off the curve)” value in experiment [8] is around 0.03 µg/mL.

What is called EC50 (read off the curve) is the concentration giving half of the maximal effect.
